We go through one molecule from patent US20250249039A1 (published 2025).

The target in the assay is T1, PRAME peptide on HLA-A*02:01 (human).
T1 peptide: SLLQHLIGL
As to the kind of experiment: multimer staining.

B1: PRAME-425-358 (TCR, V domains shown)
Valpha: QQPVQSPQAVILREGEDAVINCSSSKALYSVHWYRQKHGEAPVFLMILLKGGEQKGHDKISASFNEKKQQSSLYLTASQLSYSGTYFCGTEGTGDYKLSFGAGTTVTVRA
Vbeta: EAQVTQNPRYLITVTGKKLTVTCSQNMNHEYMSWYRQDPGLGLRQIYYSMNVEVTDKGDVPEGYKVSRKEKRNFPLILESPSPNQTSLYFCASSAGTGGHEQYFGPGTRLTVT
As for B1, the binding result is given as “recognises”.
